These results are taken from article PMC3887095.

Experiment [1] has as its target RKLM+T107I HIV-1 CA tubes (HIV-1). Kind of experiment: co-sedimentation; assembled CA tubes (5 µM) incubated 1 h with HeLa cell extracts (500, 250 or 125 µg) in 100 µl of 50 mM Tris pH 8, 150 mM NaCl, 5 mM MgCl2, 0.5 mM EDTA; pelleted 5 min at 5,000 x g and washed; non-reducing SDS-PAGE and quantitative immunoblotting for CPSF6 and CA; in one experiment with or without 5 µM CsA. A general note: In western blotting, separated proteins are transferred to a membrane and probed.

In experiment [2] the target is T54A+A105T HIV-1 CA tubes (HIV-1). The experiment is described as above.
Experiment [3] deals with RKLM+T107I HIV-1 CA-NC tubular complexes (HIV-1). Nature of the experiment: co-sedimentation; 5 µl of assembled CA-NC complexes mixed with 125 µg of HeLa cell lysate, NaCl adjusted to 150 mM, 1 h at room temperature; pelleted through a 60% sucrose cushion at 100,000 x g for 1 h at 4°C; CPSF6 in the pellet measured by LI-COR and normalized by CA-NC.
The target of experiment [4] is RKLM+S41A HIV-1 CA-NC tubular complexes (HIV-1). Described as above.

As for “endogenous CPSF6 (from UniProt Q16630 1-551) (natural protein)”, the reduced binding to CPSF6, percent in experiment [1] and in experiment [3] was 50% each time. For the same substance, the quantity of CPSF6 brought down relative to T54A CA tubes (fold of T54A CA tubes) in experiment [2] turned out to be 0.33. The substance further registered a percent weaker binding than RKLM in experiment [4] of 7%.
